According to paper PMC10804811 (Protein Science : A Publication of the Protein Society, 2024):

B1: HsCNNM4 extracellular domain A149S (Jalili syndrome mutation) (domain or fragment, human, UniProt Q6P4Q7 44-175, looked up)
chain: GTIVGMRLASCNKSCGTNPDGIIFVSEGSTVNLRLYGYSLGNISSNLISFTEVDDAETLHKSTSCLELTKDLVVQQLVNVSRGNTSGVLVVLTKFLRRSESMKLYSLCTRAQPDGPWLKWTDKDSLLFMVEE
B2: HsCNNM4 extracellular domain (residues 44–175), wild type (domain or fragment, human, UniProt Q6P4Q7 44-175, looked up)
chain: GTIVGMRLASCNKSCGTNPDGIIFVSEGSTVNLRLYGYSLGNISSNLISFTEVDDAETLHKSTSCLELTKDLVVQQLVNVSRGNTSGVLVVLTKFLRRSESMKLYALCTRAQPDGPWLKWTDKDSLLFMVEE
B3: HsCNNM4 extracellular domain N85D (Jalili syndrome mutation) (domain or fragment, human, UniProt Q6P4Q7 44-175, looked up)
chain: GTIVGMRLASCNKSCGTNPDGIIFVSEGSTVNLRLYGYSLGDISSNLISFTEVDDAETLHKSTSCLELTKDLVVQQLVNVSRGNTSGVLVVLTKFLRRSESMKLYALCTRAQPDGPWLKWTDKDSLLFMVEE
B4: HsCNNM4 extracellular domain E95Q (Jalili syndrome mutation) (domain or fragment, human, UniProt Q6P4Q7 44-175, looked up)
chain: GTIVGMRLASCNKSCGTNPDGIIFVSEGSTVNLRLYGYSLGNISSNLISFTQVDDAETLHKSTSCLELTKDLVVQQLVNVSRGNTSGVLVVLTKFLRRSESMKLYALCTRAQPDGPWLKWTDKDSLLFMVEE
B5: HsCNNM4 extracellular domain (residues 44–175) R50A (domain or fragment, human, UniProt Q6P4Q7 44-175, looked up)
chain: GTIVGMALASCNKSCGTNPDGIIFVSEGSTVNLRLYGYSLGNISSNLISFTEVDDAETLHKSTSCLELTKDLVVQQLVNVSRGNTSGVLVVLTKFLRRSESMKLYALCTRAQPDGPWLKWTDKDSLLFMVEE
B6: HsCNNM4 extracellular domain M145T (Jalili syndrome mutation) (domain or fragment, human, UniProt Q6P4Q7 44-175, looked up)
chain: GTIVGMRLASCNKSCGTNPDGIIFVSEGSTVNLRLYGYSLGNISSNLISFTEVDDAETLHKSTSCLELTKDLVVQQLVNVSRGNTSGVLVVLTKFLRRSESTKLYALCTRAQPDGPWLKWTDKDSLLFMVEE

Molecular target: the molecule itself
Assay: AUC

Stoichiometry N, 2:
B1
B2
B3
B4
B5
B6

The molecules below were run against EgCNNM4 extracellular domain (residues 25–153), wild type (Echinococcus granulosus) (assay: AUC).

Stoichiometry N, 2:
EgCNNM4 extracellular domain (residues 25–153), wild type (domain or fragment)
